Experimental findings from US20230279079A1 (CHANG GUNG MEMORIAL HOSPITAL LINKOU, published 2023) are described below.

The target in experiment [1] is T1, SARS-CoV-2 nucleocapsid in fixed and permeabilised SARS-CoV-2 infected cells (SARS-CoV-2, UniProt P0DTC9 1-419).
T1 construct: whole, on cells; also called N antigen
The experiment is described as follows: immunofluorescence assay.

Experiment [2] deals with T2, SARS-CoV-2 nucleocapsid protein (SARS-CoV-2, UniProt P0DTC9 1-419).
T2 construct: also called N protein
Briefly: ELISA on recombinant protein.

The target in experiment [3] is T3, SARS-CoV-2 spike extracellular domain (SARS-CoV-2, UniProt P0DTC2 14-1213).
T3 construct: extracellular domain; also called spike protein of SARS-CoV-2
Briefly: ELISA.

The target in experiment [4] is T4, SARS-CoV-2 spike S1 subunit (SARS-CoV-2, UniProt P0DTC2 16-685).
T4 construct: domain: S1 subunit
Briefly: ELISA.

The target in experiment [5] is T5, SARS-CoV-2 spike receptor binding domain (RBD) (SARS-CoV-2, UniProt P0DTC2 319-541).
T5 construct: also called SARS-CoV-2 RBD
Briefly: ELISA.

For experiment [6], the target named is T6, SARS-CoV-2 spike S2 subunit (SARS-CoV-2, UniProt P0DTC2 686-1213).
T6 construct: domain: S2 subunit
Briefly: ELISA.

The next experiment concerns the target T7, SARS spike S1 subunit (severe acute respiratory syndrome …, UniProt P59594 14-667).
T7 construct: domain: S1 subunit
The experiment is described as follows: ELISA.

For experiment [7], the target named is T8, MERS spike extracellular domain (Middle East respiratory syndrome …, UniProt K9N5Q8 18-1296).
T8 construct: extracellular domain
The experiment is described as follows: ELISA.

The target in experiment [8] is T9, Human coronavirus OC43 spike extracellular domain (human coronavirus OC43, UniProt P36334 14-1297).
T9 construct: extracellular domain
Briefly: ELISA.

B1: EW 4C (antibody, V domains shown)
VH: EVQLVESGPGLVKPSETLSLTCSVSADSFKKGYYWGWIRQPPGKGLESIVNSFDSGTTRYNPSLWGRATVSDMSKWHFSLKLTSVTAADTAVYYCVRGTYGSGLHWGQGILVTVSS
VL: QTVVTQEPSLTVSPGGTVTLTCGSSVGTVASGHYPYWVQQKPGQAPRTLIYDTDNKQSWTPARFSGSLLGGKAALTLSGAQPEDEADYYCFLSHNDAWVFGGGTKLTVL
For B1, the binding result in [1] and in experiment [2] was “binds” in each case.

B2: EY 2A (antibody, V domains shown)
VH: QVQLVESGAEVTKPGDSLIISCKGSGYAFTQYWIGWVRQKPGKGLEWMAMVYPDSSAVFAGGASGVRYRPPFQGQVTISADTSVNTAYLQWDSLKASDTAMYYCVRQERGSNTWYAGNSWGQGTLVTVSS
VL: DIVMTQSPLSLPVSPGEPASISCRSSQSLLHTDAYNYLDWYLQKPGQSPQLLIYLGSTRASGVPDRFSGSGSGTDFTLKISSVKAEDVGVYYCMQALQTPGTFGQGTKLEIK
Regarding B2, the binding result in [1] and in experiment [2] was “binds” throughout.

B3: EY 3B (antibody, V domains shown)
VH: EVQLVESGAEVTKPGESLIISCKGSGYAFTQYWIGWVRQKPGKGLEWMAMVYPDSSAVFAGGASGVRYRPPFQGQVTISADTSVNTAYLQWDSLKASDTAMYYCVRQERGSNTWYAGNSWGQGTLVTVFS
VL: EIVLTQSPLSLPVSPGEPASISCRSSQSLLHTDAYNYLDWYLQKPGQSPQLLIYLGSTRASGVPDRFSGSGSGTDFTLKISSVKAEDVGVYYCMQALQTPGTFGQGTKVEIR
On to B3, for which the binding result in [1] and in experiment [2] was “binds” throughout.

B4: FD 1D (antibody, V domains shown)
VH: EVQLVESGGGVVQPGRSLRLSCAASGFTFSSYAMHWVRQAPGKGLEWVAVISYDGSNKYYADSVKGRFTISRDNSKNTLYLQMNSLRAEDTAVYYCARAGSGSYLNWFDPWGQGTLVTVSS
VL: EIVLTQSPATLSLSPGERATLSCRASQSVSSYLAWYQQKPGQAPRLLIYDASNRATGIPARFSGSGSGTDFTLTISSLEPEDFAVYYCQQRSNWPITFGQGTRLEIK
With B4, the binding result is “binds” in experiment [3]; “no binding” in [4]; “no binding” in [5]; “binds” in experiment [6]; “binds” with SARS spike S1 subunit; “binds” in experiment [7]. Also, the binding result in [8] is “binds”.

B5: EW 9B (antibody, V domains shown)
VH: EVQLVQSGAEVKKPGASVKVSCKASGYTFTSYYMHWVRQAPGQGLEWMGIINPSGGSTSYAQKFQGRVTMTRDTSTSTVYMELSSLRSEDTAVYYCAREDGVVPAANLMISLEDYYYYGMDVWGQGTTVTVSS
VL: EIVLTQSPATLSLSPGERATLSCRASQSVSSYLAWYQQKPGQAPRLLIYDASNRATGIPARFSGSGSGTDFTLTISSLEPEDFAVYYCQQRSNWPLTFGGGTKVDIK
Take B5: the binding result in experiment [3] was “binds”; in experiment [5], “no binding”; in [6], “no binding”; in the experiment with SARS spike S1 subunit, “no binding”; in experiment [7], “no binding”; in experiment [8], “no binding”.

B6: FD 5E (antibody, V domains shown)
VH: EVQLVESGGVVVQPGGSLRLSCAASGFTFDDYAMHWVRQAPGKGLEWVSLISWDGGSTYYADSVKGRFTISRDNSKNSLYLQMNSLRAEDTALYYCAKDSVRFRYYYGMDVWGQGTTVTVSS
VL: EIVLTQSPATLSLSPGERATLSCRASQSVSSYLAWYQQKPGQAPRLLIYDASNRATGIPARFSGSGSGTDFTLTISSLEPEDFAVYYCQQRSNWPLTFGPGTKVDIK
Take B6: the binding result is reported as “binds” in [3]; “no binding” in experiment [5]; “no binding” in experiment [6]; “no binding” with SARS spike S1 subunit; “no binding” in experiment [7]; “no binding” in experiment [8].
